The source of these data is publication PMC4155600 (Journal of nucleic acids investigation, 2013).

Series [1] deals with the molecule itself. As to the kind of experiment: native gel or EMSA. For orientation: A gel shift assay detects complexes by their altered migration in electrophoresis.
Series [2] addresses T1, SpPot1-DBD (Schizosaccharomyces pombe, UniProt O13988 1-389).
T1 sequence: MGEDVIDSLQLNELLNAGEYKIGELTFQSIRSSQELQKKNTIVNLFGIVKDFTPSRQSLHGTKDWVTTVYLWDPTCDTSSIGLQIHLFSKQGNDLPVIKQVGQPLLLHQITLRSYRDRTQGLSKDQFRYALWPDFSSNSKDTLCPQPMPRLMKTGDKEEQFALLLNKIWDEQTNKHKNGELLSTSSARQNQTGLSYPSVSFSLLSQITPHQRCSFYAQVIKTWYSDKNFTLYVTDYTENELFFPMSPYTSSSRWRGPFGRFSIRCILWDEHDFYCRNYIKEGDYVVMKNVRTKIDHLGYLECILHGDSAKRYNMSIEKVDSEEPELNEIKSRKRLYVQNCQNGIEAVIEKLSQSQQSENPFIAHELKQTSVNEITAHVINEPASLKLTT
As to the kind of experiment: EMSA.

In series [3] the target is T2, Cdc13 (Saccharomyces cerevisiae, UniProt P32797 1-924).
T2 sequence: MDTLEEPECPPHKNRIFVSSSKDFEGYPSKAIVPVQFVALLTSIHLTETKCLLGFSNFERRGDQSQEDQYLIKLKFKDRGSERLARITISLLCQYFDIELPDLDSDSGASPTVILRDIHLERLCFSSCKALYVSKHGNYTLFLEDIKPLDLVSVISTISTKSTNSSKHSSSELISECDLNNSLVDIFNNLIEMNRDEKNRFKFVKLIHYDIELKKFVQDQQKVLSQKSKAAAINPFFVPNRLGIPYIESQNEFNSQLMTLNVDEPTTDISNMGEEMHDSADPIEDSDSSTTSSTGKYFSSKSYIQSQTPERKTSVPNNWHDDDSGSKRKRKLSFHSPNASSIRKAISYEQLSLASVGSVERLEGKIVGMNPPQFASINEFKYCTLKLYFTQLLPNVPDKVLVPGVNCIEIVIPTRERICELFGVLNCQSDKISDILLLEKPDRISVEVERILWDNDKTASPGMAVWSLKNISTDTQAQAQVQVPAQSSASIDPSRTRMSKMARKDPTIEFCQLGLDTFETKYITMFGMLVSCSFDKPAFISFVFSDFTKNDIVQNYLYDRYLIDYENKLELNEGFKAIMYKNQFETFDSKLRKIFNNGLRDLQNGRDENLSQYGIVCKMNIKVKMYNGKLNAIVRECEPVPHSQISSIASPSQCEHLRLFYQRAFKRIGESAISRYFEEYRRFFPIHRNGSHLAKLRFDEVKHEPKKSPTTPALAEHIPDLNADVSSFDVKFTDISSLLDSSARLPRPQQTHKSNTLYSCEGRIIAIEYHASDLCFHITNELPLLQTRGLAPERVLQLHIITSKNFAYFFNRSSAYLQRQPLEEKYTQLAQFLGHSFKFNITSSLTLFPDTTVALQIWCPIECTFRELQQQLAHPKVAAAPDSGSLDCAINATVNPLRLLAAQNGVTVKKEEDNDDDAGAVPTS
The experiment in a line: EMSA.

For series [4], the target named is T3, SpPot1 (Schizosaccharomyces pombe, UniProt O13988 1-555).
T3 sequence: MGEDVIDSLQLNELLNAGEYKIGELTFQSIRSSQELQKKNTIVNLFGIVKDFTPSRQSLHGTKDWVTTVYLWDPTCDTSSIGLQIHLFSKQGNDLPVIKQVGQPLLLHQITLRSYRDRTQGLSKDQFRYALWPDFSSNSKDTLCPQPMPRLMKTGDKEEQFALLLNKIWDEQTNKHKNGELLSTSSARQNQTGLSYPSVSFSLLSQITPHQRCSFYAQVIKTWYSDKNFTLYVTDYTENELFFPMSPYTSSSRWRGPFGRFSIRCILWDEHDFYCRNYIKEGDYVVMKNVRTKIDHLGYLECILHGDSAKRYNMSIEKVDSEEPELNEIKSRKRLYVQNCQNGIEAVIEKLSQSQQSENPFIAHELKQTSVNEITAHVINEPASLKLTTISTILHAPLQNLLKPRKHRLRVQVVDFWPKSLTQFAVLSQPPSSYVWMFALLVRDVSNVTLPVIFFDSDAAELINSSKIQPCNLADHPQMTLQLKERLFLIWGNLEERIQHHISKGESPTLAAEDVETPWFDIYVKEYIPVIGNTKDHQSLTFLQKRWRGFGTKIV
The experiment in a line: filter binding.

The target in series [5] is T3, SpPot1. The experiment in a line: filter binding. The source holds these as a separate data set.
Series [6] concerns the target T3, SpPot1.
In series [7] the target is T3, SpPot1. The experiment in a line: filter binding. This is another data set of the same source.
Series [8] concerns the target T3, SpPot1. As to the kind of experiment: filter binding. This is another data set of the same source.
Series [9] has as its target T1, SpPot1-DBD. As to the kind of experiment: EMSA. The source holds these as a separate data set.
The target in series [10] is T1, SpPot1-DBD. As to the kind of experiment: EMSA. This is another data set of the same source.
Series [11] addresses T1, SpPot1-DBD. As to the kind of experiment: EMSA. The source holds these as a separate data set.
Series [12] has as its target T1, SpPot1-DBD. The experiment in a line: EMSA. The source holds these as a separate data set.
Series [13] deals with T1, SpPot1-DBD. As to the kind of experiment: EMSA. This is another data set of the same source.
Series [14] addresses T1, SpPot1-DBD. As to the kind of experiment: EMSA. The source holds these as a separate data set.

Read-outs that look alike come from different tables or passages of the source.

B1: Saccharomyces cerevisiae Cdc13 (1–924), full-length protein (natural protein, UniProt P32797 1-924, looked up)
chain: T2 sequence
Turning to B1, the stoichiometry N (in general, a count of units in the complex or per binding partner) in [1] worked out at 2.

B2: d(GGTTA) 5mer (ssDNA)
DNA: GGTTA
As to B2, the Kd – broadly, the equilibrium constant for the complex coming apart – in [2] was roughly 10000 pM.

B3: Tel11 (ssDNA)
DNA: GTGTGGGTGTG
As to B3, the equilibrium dissociation constant (Kd) in series [3] came out at 13.4 ± 0.8 pM.

B4: 12mer (ssDNA)
DNA: GGTTACGGTTAC
For B4, the Kd came to 100 pM in series [4]; 14 pM in series [5]; 6.7 ± 0.9 pM in [6]; 700 pM in series [7]; 130 pM in series [8].

B5: 15mer (ssDNA)
DNA: GGTTACGGTTACGGT
For the molecule B5, the dissociation constant Kd in series [9] is 5 pM; in series [10], 4.9 ± 0.8 pM; in series [11] it was 1.6 pM; in series [12] it was 1.5 pM; in [6], 5.2 ± 0.5 pM; in series [13], 4.2 pM. Moreover, the Kd in series [14] turned out to be 10.3 pM.
